In assay [1] the target is CD33 protein (human), on primary patient AML cells and AML cell lines (human) (UniProt P20138). Kind of assay: cell-based or functional assay.
For assay [2] the target is unchanged. Kind of assay: cell-based or functional assay. This is another data set of the same source.

Chain of UniProt P20138 (P20138 18-364): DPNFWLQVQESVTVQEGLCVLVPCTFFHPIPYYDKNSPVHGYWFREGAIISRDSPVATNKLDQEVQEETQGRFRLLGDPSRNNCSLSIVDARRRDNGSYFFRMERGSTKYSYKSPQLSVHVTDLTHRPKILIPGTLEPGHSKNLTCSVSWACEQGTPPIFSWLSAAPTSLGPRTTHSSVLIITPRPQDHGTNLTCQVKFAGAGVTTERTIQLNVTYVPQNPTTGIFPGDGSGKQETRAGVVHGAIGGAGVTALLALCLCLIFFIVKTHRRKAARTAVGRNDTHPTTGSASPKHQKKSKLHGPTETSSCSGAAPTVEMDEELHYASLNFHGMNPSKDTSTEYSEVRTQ

“non-binding chimeric IgG1-DGN462 conjugate (antibody)” displayed an IC50, cytotoxicity against primary patient AML cells in assay [1] of over 1000 pM.

B1: IMGN779 (anti-huCD33 antibody huMy9-6 conjugated to DGN462 via a cleavable disulfide sulfo-SPDB linker) (antibody, from a related filing, V domains shown)
VH: QVQLQQPGAEVVKPGASVKMSCKASGYTFTSYYIHWIKQTPGQGLEWVGVIYPGNDDISYNQKFQGKATLTADKSSTTAYMQLSSLTSEDSAVYYCAREVRLRYFDVWGQGTTVTVSS
VL: EIVLTQSPGSLAVSPGERVTMSCKSSQSVFFSSSQKNYLAWYQQIPGQSPRLLIYWASTRESGVPDRFTGSGSGTDFTLTISSVQPEDLAIYYCHQYLSSRTFGQGTKLEIKR
For the molecule B1, in assay [2], the IC50, cytotoxicity on MOLM-13 FLT3-ITD AML cell line (WST-8 assay) is 5 pM; the IC50, cytotoxicity on MV4-11 FLT3-ITD AML cell line (WST-8 assay) is 2 pM; the IC50, cytotoxicity on a panel of 21 AML cell lines (WST-8 assay) was 2 to 3000 pM; the IC50, cytotoxicity on a panel of 21 AML cell lines (WST-8 assay), median was found to be 70 pM. This molecule showed an IC50, in vitro cytotoxicity against primary patient AML cells in assay [2] of 10 to 1500 pM.

The values are drawn from patent US20170080102A1.
